From patent US20140141415A1 come the findings set out here.

In assay [1] the target is GFP 1-9 OPT (Aequorea victoria). The experiment in a line: split GFP complementation, sandwich format.
The target of assay [2] is sulfite reductase-GFP S11 wild type (Pyrobaculum aerophilum; Aequorea victoria). In words: split GFP complementation in vitro, soluble lysate with excess purified fusion protein.

The substance “(GFP S10 SM5)-L1-sulfite reductase-L2-(GFP S11 SM5)” came in with a fold increase of complementation rate compared to the starting strand construct in assay [1] of 20 fold.

In assay [2], GFP 1-10 OPT displayed a fold improvement of in vitro complementation relative to the same amount of refolded superfolder GFP 1-10 of 80 fold.
